Test results as given in article PMC11396517, “Differences in the Renal Accumulation of Radiogallium-Labeled (Glu)14 Peptides Containing Different Optical Isomers of Glutamic Acid” (Molecules, 2024).
Like-named read-outs stand apart in the source and are kept apart here.

How the values were obtained:
[1] = Hydroxyapatite-binding assay; conditions: hydroxyapatite beads 1, 2.5, 10, 25 mg/mL in Tris/HCl-buffered saline 50 mM pH 7.4, ligand 19.5 µM, 1 h, room temperature, gamma counter, four samples; Figure 2
Protocol: Hydroxyapatite-binding assays were performed according to procedures described previously. Briefly, hydroxyapatite beads (Bio-Gel; Bio-Rad, Hercules, CA, USA) were suspended in Tris/HCl-buffered saline (50 mM, pH 7.4) at 1 mg/mL, 2.5 mg/mL, 10 mg/mL, and 25 mg/mL. For the solutions of [^67Ga]Ga-HBED-CC-(D-Glu)14, [^67Ga]Ga-HBED-CC-(DL-Glu)14, and [^67Ga]Ga-HBED-CC-(D-Glu-L-Glu)7, the ligand concentrations were adjusted to 19.5 µM by adding the corresponding HBED-CC conjugated Glu peptides. A solution of each [^67Ga]Ga-HBED-CC-(D-Glu)14, [^67Ga]Ga-HBED-CC-(DL-Glu)14, and [^67Ga]Ga-HBED-CC-(D-Glu-L-Glu)7 (200 µL each) was added to 200 μL of the hydroxyapatite suspension, and the samples were gently shaken for 1 h at room temperature. After centrifugation at 10,000× g for 5 min, the radioactivity of the supernatants was measured using an auto well gamma counter (ARC-7010B, ALOKA Co., Ltd., Tokyo, Japan). […] The ratios of binding were determined as follows:Hydroxyapatite binding (%) = (1 − [sample supernatant radioactivity]/[control supernatant radioactivity]) × 100

in vivo = experiment: in vivo; set-up: species or system ddY mice; conditions: male, ddY, mouse, iv, 37 kBq/100 uL, total radioactivity
Protocol: Biodistribution experiments were performed after an intravenous administration of each tracer solution diluted in saline (37 kBq/100 μL) to 6-week-old male ddY mice (weight, 27–32 g, Japan SLC, Inc., Hamamatsu, Japan). Four mice were sacrificed at each time point for each compound at 10, 60, and 180 min post-injection. The tissues of interest were dissected and weighed. Complete left femurs were isolated as representative bone samples, radioactivity counts were determined using an auto well gamma counter (ARC-7010, ALOKA Co., Ltd.), and counts were corrected for the background radiation and physical decay that occurred during counting.

[2] = hydroxyapatite beads; Figure 2; cited from earlier work
Protocol: To determine the affinity of the compounds for hydroxyapatite, the hydroxyapatite-binding assay was performed. The hydroxyapatite-binding rates of [^67Ga]Ga-HBED-CC-(L-Glu)14, [^67Ga]Ga-HBED-CC-(D-Glu)14, [^67Ga]Ga-HBED-CC-(DL-Glu)14, and [^67Ga]Ga-HBED-CC-(D-Glu-L-Glu)7 are illustrated in Figure 2. The binding profiles of each tracer were similar.

Hydroxyapatite binding profile (in words) [1]	Compound	tissue uptake dose at 10 min (in vivo) [%ID]	tissue uptake dose at 1 h (in vivo) [%ID]	tissue uptake dose at 3 h (in vivo) [%ID]	Hydroxyapatite binding profile (in words) [2]
similar	O=C(O)CCc1ccc(O)c(CN(CCN(CC(=O)O)Cc2cc(CCC(=O)N[C@H](CCC(=O)O)C(=O)N[C@H](CCC(=O)O)C(=O)N[C@H](CCC(=O)O)C(=O)N[C@H](CCC(=O)O)C(=O)N[C@H](CCC(=O)O)C(=O)N[C@H](CCC(=O)O)C(=O)N[C@H](CCC(=O)O)C(=O)N[C@H](CCC(=O)O)C(=O)N[C@H](CCC(=O)O)C(=O)N[C@H](CCC(=O)O)C(=O)N[C@H](CCC(=O)O)C(=O)N[C@H](CCC(=O)O)C(=O)N[C@H](CCC(=O)O)C(=O)N[C@H](CCC(=O)O)C(=O)O)ccc2O)CC(=O)O)c1 [[67Ga]Ga-HBED-CC-(D-Glu)14, metal not drawn]	0.57	0.51	0.76	–
similar	O=C(O)CCc1ccc(O)c(CN(CCN(CC(=O)O)Cc2cc(CCC(=O)N[C@H](CCC(=O)O)C(=O)N[C@@H](CCC(=O)O)C(=O)N[C@H](CCC(=O)O)C(=O)N[C@@H](CCC(=O)O)C(=O)N[C@H](CCC(=O)O)C(=O)N[C@@H](CCC(=O)O)C(=O)N[C@H](CCC(=O)O)C(=O)N[C@@H](CCC(=O)O)C(=O)N[C@H](CCC(=O)O)C(=O)N[C@@H](CCC(=O)O)C(=O)N[C@H](CCC(=O)O)C(=O)N[C@@H](CCC(=O)O)C(=O)N[C@H](CCC(=O)O)C(=O)N[C@@H](CCC(=O)O)C(=O)O)ccc2O)CC(=O)O)c1 [[67Ga]Ga-HBED-CC-(D-Glu-L-Glu)7, metal not drawn]	0.32	0.84	0.48	–
–	[^67Ga]Ga-N,N′-bis-[2-hydroxy-5-(carboxyethyl)benzyl]ethylenediamine-N,N′-diacetic acid-conjugated (L-Glu)14 [[^67Ga]Ga-HBED-CC-(L-Glu)14]	–	–	–	similar
